Results: publication PMC2173288 (The Journal of Cell Biology, 2002)

B1: Bet1p-(41–119) (domain or fragment)
chain: TDKLDYSQSTLASLESQSEEQMGAMGQRIKALKSLSLKMGDEIRGSNQTIDQLGDTFHNTSVKLKRTFGNMMEMARRSG
B2: Bet1p-GST (domain or fragment)
chain: MSSRFAGGNAYQRDTGRTQLFGPADGSNSLDDNVSSALGSTDKLDYSQSTLASLESQSEEQMGAMGQRIKALKSLSLKMGDEIRGSNQTIDQLGDTFHNTSVKLKRTFGNMMEMARRSG

Assays:
[1] = molecular target: Glo3p (UniProt P38682 1-493); experiment: pull-down
[2] = molecular target: Sar1p (UniProt P20606 1-190); experiment: pull-down
Sequence of Sar1p (P20606 whole entry): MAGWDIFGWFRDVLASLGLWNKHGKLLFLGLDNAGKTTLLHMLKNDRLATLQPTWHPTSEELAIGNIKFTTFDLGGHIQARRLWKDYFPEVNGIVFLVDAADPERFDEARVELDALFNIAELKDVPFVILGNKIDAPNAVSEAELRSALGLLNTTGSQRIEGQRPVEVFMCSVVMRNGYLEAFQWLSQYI

Sequence of Glo3p (P38682 whole entry): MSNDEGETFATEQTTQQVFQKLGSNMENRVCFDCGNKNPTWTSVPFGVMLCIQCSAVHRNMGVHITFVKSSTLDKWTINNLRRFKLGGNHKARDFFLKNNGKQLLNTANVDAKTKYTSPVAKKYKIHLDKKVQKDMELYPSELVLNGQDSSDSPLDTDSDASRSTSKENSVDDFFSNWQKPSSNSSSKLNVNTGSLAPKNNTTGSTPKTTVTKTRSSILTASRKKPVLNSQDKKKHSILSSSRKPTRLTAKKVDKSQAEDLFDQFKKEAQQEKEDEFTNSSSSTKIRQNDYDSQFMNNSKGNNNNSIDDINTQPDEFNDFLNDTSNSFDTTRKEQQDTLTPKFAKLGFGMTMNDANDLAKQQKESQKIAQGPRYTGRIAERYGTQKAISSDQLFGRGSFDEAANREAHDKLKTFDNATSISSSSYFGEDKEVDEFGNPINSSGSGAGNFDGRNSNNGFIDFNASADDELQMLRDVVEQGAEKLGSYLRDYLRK

Binder	binding result [1]	binding result [2]
B1	binds	
B2		binds
